Paper PMC5264654

Experiments:
[1] = target: '3tag' PCNA^S228I (human) (UniProt P12004); test: SPR; reverse orientation: ~1000 RU biotinylated 3tag-PCNA on an SA chip; GST-PIP fusion as analyte, single cycle kinetics (Cdt1 highest 44.5 μM, p21 highest 27.9 μM); HBS-EP with 1 g/l BSA
GST-p21 PIP box fusion = GST-p21 PIP box fusion (UniProt P38936); test: SPR; ~1000 RU GST-PIP fusion bound to a CM5 chip (acetate pH 5.5), GST as control lane; His-S-PCNA as analyte, 10 point 2x dilution series from 12 μM; equilibrium of binding, steady state affinity fit; HBS-EP (0.01 M HEPES pH 7.4, 0.15 M NaCl, 3 mM EDTA, 0.0005% IGEPAL) with 1 g/l BSA; Biacore T200
Sequence of UniProt P38936 (P38936 whole entry, the tested form may be a part): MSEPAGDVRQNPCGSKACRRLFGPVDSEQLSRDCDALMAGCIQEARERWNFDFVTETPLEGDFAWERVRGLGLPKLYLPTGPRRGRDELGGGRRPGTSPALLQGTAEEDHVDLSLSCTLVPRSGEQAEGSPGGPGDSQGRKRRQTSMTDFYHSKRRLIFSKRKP

GST-Fen1 PIP box fusion = GST-Fen1 PIP box fusion (UniProt P39748); test: as above
Sequence of UniProt P39748 (P39748 whole entry, the tested form may be a part): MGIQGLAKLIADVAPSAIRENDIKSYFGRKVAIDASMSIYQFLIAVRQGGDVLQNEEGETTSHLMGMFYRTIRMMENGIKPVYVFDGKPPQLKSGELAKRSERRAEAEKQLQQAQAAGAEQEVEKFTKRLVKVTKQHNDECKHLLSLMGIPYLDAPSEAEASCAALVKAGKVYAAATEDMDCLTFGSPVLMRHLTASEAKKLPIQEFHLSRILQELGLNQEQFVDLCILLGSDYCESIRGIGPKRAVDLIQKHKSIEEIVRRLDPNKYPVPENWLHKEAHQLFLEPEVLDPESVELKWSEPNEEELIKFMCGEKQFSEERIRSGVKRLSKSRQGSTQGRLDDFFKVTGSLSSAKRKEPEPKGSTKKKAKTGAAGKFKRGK

reduction of the affinity against PCNA^WT [1] | Kd (GST-p21 PIP box fusion) | Kd (GST-Fen1 PIP box fusion) | Substance
10% | – | – | GST-p21 PIP box fusion (from UniProt P38936 1-164) (domain or fragment)
– | 3.7 µM | 15 µM | His-S-tagged PCNA^S228I (from UniProt P12004 1-258) (natural protein)
– | 1.8 µM | 1.1 µM | His-S-tagged PCNA^WT (from UniProt P12004 1-261) (natural protein)
